# Results as given in paper PMC2248732.
# How the values were obtained:
# Hfqwt (Escherichia coli) = Hfqwt (Escherichia coli) (UniProt P0A6X3); experiment: EMSA
# Hfq65 (Escherichia coli) = Hfq65 (Escherichia coli) (UniProt P0A6X3); experiment: EMSA
# Hfq65 (Escherichia coli), sequence (P0A6X3 1-65): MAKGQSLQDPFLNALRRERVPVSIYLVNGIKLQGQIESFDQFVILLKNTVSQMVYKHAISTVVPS
# Hfqwt (Escherichia coli), sequence (P0A6X3 whole entry): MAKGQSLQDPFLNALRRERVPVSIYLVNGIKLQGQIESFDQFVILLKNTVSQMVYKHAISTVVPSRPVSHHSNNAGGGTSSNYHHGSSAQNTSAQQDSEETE
substance,measurement,setting,value
RyhB,Kd,Hfqwt (Escherichia coli),16 nM
same,Kd,Hfq65 (Escherichia coli),35 nM
